Measurements: PMC6313406

Molecular target: Dimeric Lip3 (isoenzyme 3 of Candida rugosa lipase) (Candida rugosa) (UniProt P32947)
Assay: SEC; Sephacryl S200 column (1.6x60 cm), 25 mM Tris/HCl pH 7.5, 0.15 M NaCl, 0.3 mL/min, no detergent; calibrated with the high molecular weight marker kit

Substance: Dimeric Lip3 (isoenzyme 3 of Candida rugosa lipase) (from UniProt P32947 16-549)
- stoichiometry N: 2
